For this assay, the target named is T1, mCherry–Gβ1γ2 dimer (UniProt P62873 1-340; P59768 1-71, 20-carbon geranylgeranyl lipid on the cysteine of the C-terminal CaaX motif (said of Gγ2 in general)).
T1 construct: Gβ1 subunit; cDNA in pcDNA3.1+ from UMR cDNA Resource Center; FP cloned at the N-terminus; Gγ2 subunit; source: HEK 293, transiently co-transfected (mCherry–Gβ1 and Gγ2), in living cells; not shown: mCherry, N-terminal, kept
The assay can be described thus: FRET or BRET; FLIM-FRET in living transiently transfected HEK 293 cells at 37 °C; donor Citrine in Gα, acceptor mCherry on Gβ1 with the appropriate Gγ; efficiency E = 1 − τda/τd from the short lifetime component τ1 (donor alone 2.7 ± 0.1 ns), analysed only at the plasma membrane; GppNHp added to the culture did not change the signal. Conditions: partners not purified. On the technique in general: Bioluminescence resonance energy transfer reports proximity on the nanometre scale.

B1: Citrine–Gαs (natural protein)
chain: MGCLGNSKTEDQRNEEKAQREANKKIEKQLQKDKQVYRATHRLLLLGAGESGKSTIVKQMRILHVNGFNGNSDGEKATKVQDIKNNLKEAIETIVAAMSNLVPPVELANPENQFRVDYILSVMNVPDFDFPPEFYEHAKALWEDEGVRACYERSNEYQLIDCAQYFLDKIDVIKQADYVPSDQDLLRCRVLTSGIFETKFQVDKVNFHMFDVGGQRDERRKWIQCFNDVTAIIFVVASSSYNMVIREDNQTNRLQEALNLFKSIWNNRWLRTISVILFLNKQDLLAEKVLAGKSKIEDYFPEFARYTTPEDATPEPGEDPRVTRAKYFIRDEFLRISTASGDGRHYCYPHFTCAVDTENIRRVFNDCRDIIQRMHLRQYELL
notes: Gαs subunit (stimulatory G-protein alpha subunit); cDNA in pcDNA3.1+ from UMR cDNA Resource Center; also called wild-type Gαs; loop-tagged Gαs; source: HEK 293, transiently transfected; in living cells (FLIM-FRET) and in cell lysate (pull-down); not shown: Citrine, internal (in place of the loop Glu71-Ser82), kept
B1 displayed an FRET efficiency of 19.7%.

Source of the values: PMC6829862, “Gγ and Gα Identity Dictate a G-Protein Heterotrimer Plasma Membrane Targeting” (Cells, 2019).
